Assay results taken from PMC10474468.

Columns and labels:
[1] = molecular target: Trichomonas vaginalis riboside hydrolase (TvRH), His6 tag removed (Trichomonas vaginalis) (UniProt A2FTT0); assay: SEC
purified protein [2] = substrate: O=[N+]([O-])c1ccc(O[C@@H]2O[C@H](CO)[C@@H](O)[C@H]2O)cc1; assay: purified protein; conditions: Ca2+
purified protein [3] = substrate: Nc1ccn([C@@H]2O[C@H](CO)[C@@H](O)[C@H]2O)c(=O)n1; assay: purified protein; conditions: Ca2+
purified protein [4] = substrate: O=c1[nH]c(=O)n([C@@H]2O[C@H](CO)[C@@H](O)[C@H]2O)cc1Br; assay: purified protein; conditions: Ca2+
purified protein [5] = substrate: O=c1[nH]c(=O)n([C@@H]2O[C@H](CO)[C@@H](O)[C@H]2O)cc1F; assay: purified protein; conditions: Ca2+
purified protein [6] = substrate: NC(=O)c1ccc[n+]([C@@H]2O[C@H](CO)[C@@H](O)[C@H]2O)c1; assay: purified protein; conditions: Ca2+ active site (modeled only); pH 6.5; 37.0 °C
purified protein [7] = substrate: O=c1ccn([C@@H]2O[C@H](CO)[C@@H](O)[C@H]2O)c(=O)[nH]1; assay: purified protein; conditions: Ca2+ active site (modeled only)
purified protein [8] = substrate: O=c1[nH]c(=O)n([C@@H]2O[C@H](CO)[C@@H](O)[C@H]2O)cc1Cl; assay: purified protein; conditions: Ca2+

Molecule: Trichomonas vaginalis riboside hydrolase (TvRH), His6 tag removed (from UniProt A2FTT0 1-347) (enzyme)
- stoichiometry N [1]: 4

B1: TvRH (riboside hydrolase, TVAG_092730) (Trichomonas vaginalis G3) (protein)
chain: MSIKCALDCDPGHDDLAMIMLAVYSPKLDVQYISTTHGNQTVNKTYQNARRTLNLIKRADKIPVYRGYSKPLTRESVACPEIHGESGLGGVDWSEIDRTMPRNPALDILGYKDESELRPDDFFKHLHRLVSAAEDKFDIISTGSETNIAQYLLAYPEDAKKIRMTTMAGNFMIVGNIMPFAEFNVLIDPEAISNILQSGVDYTFAAPLDITHTVLVTEKVINDIKAATEPYSPKFTEMIIKLLFFFKDTYRDVFGFIDPPLHDPVAAFHLIAPEWFEHVRCHVDIETKGEYTYGCCCTNLILKKKDPTKIVKPDNATVCLKLKEGGHDAFWNQMITVWGEIAKEIGK
- Km (purified protein [2]): 13 µM
- kcat (purified protein [2]): 391 ± 2 s⁻¹
- kcat/Km (purified protein [2]): 3e+07 M⁻¹ s⁻¹
- Km (purified protein [3]): 33 µM
- kcat (purified protein [3]): 0.19 ± 0.003 s⁻¹
- kcat/Km (purified protein [3]): 5700 M⁻¹ s⁻¹
- Km (purified protein [4]): 20 µM
- kcat (purified protein [4]): 2.1 ± 0.1 s⁻¹
- kcat/Km (purified protein [4]): 100000 M⁻¹ s⁻¹
- Km (purified protein [5]): 17 µM
- kcat (purified protein [5]): 12.6 ± 0.6 s⁻¹
- kcat/Km (purified protein [5]): 770000 M⁻¹ s⁻¹
- Km (purified protein [6]): 99.1 µM
- kcat (purified protein [6]): 10.9 ± 0.24 s⁻¹
- kcat/Km (purified protein [6]): 110000 M⁻¹ s⁻¹
- Km (purified protein [7]): 39 µM
- kcat (purified protein [7]): 9.3 ± 0.27 s⁻¹
- kcat/Km (purified protein [7]): 240000 M⁻¹ s⁻¹
- Km (purified protein [8]): 11 µM
- kcat (purified protein [8]): 2.3 ± 0.1 s⁻¹
- kcat/Km (purified protein [8]): 210000 M⁻¹ s⁻¹
